According to patent US20240247301A1, “DIAGNOSTIC ASSAY FOR CLASSIC INBORN GALACTOSEMIA” (Ohio State Innovation Foundation, priority 2022, published 2024):
“And” between values parts separate entries of the source, which are not always exact repeats. Identical values can stand only once.

Test system: O=P(O)(O)O[C@H]1O[C@H](CO)[C@@H](O)[C@H](O)[C@H]1O
Assay: YidA phosphatase activity (malachite green), dephosphorylation of Glc-1-P
Format: biochemical, Salmonella typhimurium
Excerpt: The sugar phosphate phosphatase produced from an engineered cell can be identical to a naturally occurring one, such as YidA or YihX, but placed within a cell in which it is not naturally produced. Examples of this approach are given throughout. The sequence for YidA from Salmonella typhimurium can be found, for example, in NC_492731.1. This sequence corresponds to SEQ ID NO: 1. The gene ID is 1255358. The sequence for YihX from Salmonella typhimurium can be found, for example, in NC_462906.1. This corresponds to SEQ ID NO: 2. The gene ID is 1255552. In one example, genes encoding these proteins can be placed within a cell in which it is not naturally occurring.
Nearly homogeneous recombinant Salmonella YidA by overexpressing it in E. coli SixPack cells were obtained (Lipinszki et al. 2018) (FIG. 3A). N-terminal fusions with a small ubiquitin-like modifier (SUMO) domain were engineered to enhance solubility (Marblestone et al. 2006) and a His6 tag to facilitate affinity purification (FIG. 3A). […] Since YidA is a Mg^2+-dependent phosphatase, its activity with Glc-1-P in the presence of 0-5 mM MgCl2 was first tested and determined that 3 mM MgCl2 was optimal (FIG. 5). […]

Q: Which results are given for “Salmonella typhimurium YidA, recombinant wild type, SEQ ID NO: 1 (Salmonella enterica subsp. enterica serovar Typhimurium str. LT2)”?
A: Km (other: mean ± SE of two independent trials, pH 8.0): 1.34 ± 0.02 mM and 1.35 ± 0.01 mM; Km (other: single trials, ± curve-fit error, pH 8, 37° C., 3 mM MgCl2, 37.0 °C): 1.34 ± 0.3 mM and 1.35 ± 0.3 mM
